Reference: paper PMC6951436

What was measured:
[1] = molecular target: pyruvate kinase liver isoform (PKL) (UniProt P12928); assay: native PAGE of oligomeric state; details: reference: non-phosphorylated PKL (WT); sites S113
[2] = molecular target: pyruvate kinase liver isoform (PKL) (UniProt P12928); assay: size-exclusion chromatography of oligomeric state; details: reference: non-phosphorylated PKL (WT); sites S113

Chain of pyruvate kinase liver isoform (PKL) (UniProt P12928) (P12928 whole entry, looked up, canonical isoform): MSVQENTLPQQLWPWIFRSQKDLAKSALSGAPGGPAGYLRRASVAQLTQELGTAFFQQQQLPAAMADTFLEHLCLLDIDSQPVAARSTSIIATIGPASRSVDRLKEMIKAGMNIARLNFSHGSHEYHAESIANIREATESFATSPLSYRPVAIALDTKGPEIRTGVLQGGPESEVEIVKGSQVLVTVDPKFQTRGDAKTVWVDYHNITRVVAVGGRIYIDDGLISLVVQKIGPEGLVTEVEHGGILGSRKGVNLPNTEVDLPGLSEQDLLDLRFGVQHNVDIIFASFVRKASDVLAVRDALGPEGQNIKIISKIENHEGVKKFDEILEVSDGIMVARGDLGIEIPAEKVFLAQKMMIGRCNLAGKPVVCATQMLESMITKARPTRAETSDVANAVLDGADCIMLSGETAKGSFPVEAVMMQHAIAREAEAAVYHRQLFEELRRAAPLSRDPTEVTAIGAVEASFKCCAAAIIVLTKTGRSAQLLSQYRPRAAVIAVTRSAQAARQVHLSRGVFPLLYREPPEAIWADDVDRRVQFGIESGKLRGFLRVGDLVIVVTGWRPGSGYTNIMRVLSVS
Chain of pyruvate kinase liver isoform (PKL) (from UniProt P12928-2) PKL pS113 proteoform (P12928 whole entry, looked up, change not shown, canonical isoform): as the sequence (P12928 whole entry, looked up, canonical isoform) above

For “pyruvate kinase liver isoform (PKL) (from UniProt P12928-2) PKL pS113 proteoform”, the “binding against the reference” value [1] was “same” and the “binding against the reference” value [2] was “same”.
